B1: PR193_00018 (antibody, V domains shown)
VH: EVQLVESGGGLVQPGGSLRLSCSASGFTFSSFWMSWVRQAPGKGLEWVATIREDGSEKYYVDSVKGRFSISRDNAKNSLYLQMNSLRAEDTAVYYCARSKWLRGSFDYWGQGTLVTVSS
VL: NFMLTQPHSVSESPGKTVTISCTRRSGSIASNYVQWYQQRPGSAPTTVIYEDNQRPSGVPDRFSGSIDSSSNSASLTISGLQTEDEADYYCQSYDSSNPPGASWVFGGGTKLTVL
notes: also called IMM20184; IMM200184
B2: PR194_00232 (antibody, V domains shown)
VH: EVQLVESGGGLVQPGGSLRLSCSASGFTVSSNYMSWVRQAPRKGLEWVSVIYAGGSTFYADSVKGRFTISRDNSKNTLLLQMNSLRAEDTAVYYCARDRGGYLDYWGQGTLVTVSS
VL: DIQMTQSPSSLSASVGDRVTITCRASQGISNYLAWYQQKPGKVPKLLIYAASTLQSGVPSRFSGSGSGTDFTLTISSLQPEDVATYYCQKYNSAPGLTFGGGTKVEIK
notes: also called IMM20190; PR194_00190
B3: PR200_00622 (antibody, V domains shown)
VH: QVQLVESGGGVVQPGRSLRLSCTASGFTFSTYGMHWVRQAPGKGLEWVAVISYDGSSKHYAESVKGRFTISRDNSNNTLYLQMNRLRAEDTAVYYCARDGQPPGWGNYFDYWGQGTLVTVAS
VL: SYVLTQPPSVSVAPGKTARITCGGNGIGSKSVYWYQQKPGQAPEVVVYDDSDRPSGIPERFSGSNSGNTATLTISRVEAGDEADYYCQVWDSSSDPWVFGGGTKLTVL
notes: also called IMM20253; PR200_00253

Legend:
[1] = molecular target: T1, SARS-CoV-2 Spike RBD N501Y (SARS-CoV-2, UniProt P0DTC2 319-541); experiment: HTRF, soluble RBD construct
T1 construct: domain: RBD

[2] = molecular target: T2, SARS-CoV-2 Spike RBD K417N (SARS-CoV-2, UniProt P0DTC2 319-541); experiment: HTRF, soluble RBD construct
T2 construct: domain: RBD

[3] = molecular target: T3, SARS-CoV-2 Spike RBD A352S (SARS-CoV-2, UniProt P0DTC2 319-541); experiment: HTRF, soluble RBD construct
T3 construct: domain: RBD

[4] = molecular target: T4, SARS-CoV-2 Spike RBD N439K (SARS-CoV-2, UniProt P0DTC2 319-541); experiment: HTRF, soluble RBD construct
T4 construct: domain: RBD

[5] = molecular target: T5, SARS-CoV-2 Spike RBD A475V (SARS-CoV-2, UniProt P0DTC2 319-541); experiment: HTRF, soluble RBD construct
T5 construct: domain: RBD

[6] = molecular target: T6, SARS-CoV-2 Spike RBD Y453F (SARS-CoV-2, UniProt P0DTC2 319-541); experiment: HTRF, soluble RBD construct
T6 construct: domain: RBD

[7] = molecular target: T7, SARS-CoV-2 Spike RBD E406Q (SARS-CoV-2, UniProt P0DTC2 319-541); experiment: HTRF, soluble RBD construct
T7 construct: domain: RBD

[8] = molecular target: T8, SARS-CoV-2 Spike S1 domain ΔHV69/70, N501Y, D614G (SARS-CoV-2, UniProt P0DTC2 16-685); experiment: HTRF, soluble S1 construct
T8 construct: domain: S1; also called U.K. partial (ΔHV69/70, N501Y D614G)

[9] = molecular target: T9, SARS-CoV-2 Spike S1 domain D614G (SARS-CoV-2, UniProt P0DTC2 16-685); experiment: HTRF, soluble S1 construct
T9 construct: domain: S1

[10] = molecular target: T10, SARS-CoV-2 Spike S1 domain A222S, D614G (SARS-CoV-2, UniProt P0DTC2 16-685); experiment: HTRF, soluble S1 construct
T10 construct: domain: S1; also called Spanish (A222S, D614G)

[11] = molecular target: T11, SARS-CoV-2 Spike S1 domain K417N, E484K, N501Y, D614G (SARS-CoV-2, UniProt P0DTC2 16-685); experiment: HTRF, soluble S1 construct
T11 construct: domain: S1; also called S. African (K417N, E484K, N501Y, D614G); B.1.351

[12] = molecular target: T12, SARS-CoV-2 Spike S1 domain ΔHV69/70, ΔY144, N501Y, A570D, D614G, P681H (SARS-CoV-2, UniProt P0DTC2 16-685); experiment: HTRF, soluble S1 construct
T12 construct: domain: S1; also called U.K. (B.1.1.7); DHV69/70, DY144, N501Y, A570D, D614G, P681H

[13] = molecular target: T13, SARS-CoV-2 Spike S1 domain ΔHV69/70, Y453F, D614G (SARS-CoV-2, UniProt P0DTC2 16-685); experiment: HTRF, soluble S1 construct
T13 construct: domain: S1; also called Denmark (ΔHV69/70, Y453F, D614G); DHV69/70, Y453F, D614G

[14] = molecular target: T1, SARS-CoV-2 Spike RBD N501Y; experiment: HTRF, soluble RBD construct; remark: listed apart in the source
[15] = molecular target: T14, SARS-CoV-2 Spike RBD E484Q (SARS-CoV-2, UniProt P0DTC2 319-541); experiment: HTRF, soluble RBD construct
T14 construct: domain: RBD

[16] = molecular target: T2, SARS-CoV-2 Spike RBD K417N; experiment: HTRF, soluble RBD construct; remark: listed apart in the source
[17] = molecular target: T3, SARS-CoV-2 Spike RBD A352S; experiment: HTRF, soluble RBD construct; remark: listed apart in the source
[18] = molecular target: T15, SARS-CoV-2 Spike RBD F486S (SARS-CoV-2, UniProt P0DTC2 319-541); experiment: HTRF, soluble RBD construct
T15 construct: domain: RBD

[19] = molecular target: T4, SARS-CoV-2 Spike RBD N439K; experiment: HTRF, soluble RBD construct; remark: listed apart in the source
[20] = molecular target: T5, SARS-CoV-2 Spike RBD A475V; experiment: HTRF, soluble RBD construct; remark: listed apart in the source
[21] = molecular target: T6, SARS-CoV-2 Spike RBD Y453F; experiment: HTRF, soluble RBD construct; remark: listed apart in the source
[22] = molecular target: T7, SARS-CoV-2 Spike RBD E406Q; experiment: HTRF, soluble RBD construct; remark: listed apart in the source
[23] = molecular target: T16, SARS-CoV-2 Spike RBD K444R (SARS-CoV-2, UniProt P0DTC2 319-541); experiment: HTRF, soluble RBD construct
T16 construct: domain: RBD

[24] = molecular target: T17, SARS-CoV-2 Spike RBD L452R (SARS-CoV-2, UniProt P0DTC2 319-541); experiment: HTRF, soluble RBD construct
T17 construct: domain: RBD

[25] = molecular target: T18, SARS-CoV-2 Spike RBD E484K (SARS-CoV-2, UniProt P0DTC2 319-541); experiment: HTRF, soluble RBD construct
T18 construct: domain: RBD

[26] = molecular target: Spike protein of the U.K. (B.1.1.7, Alpha) variant on pseudovirus or live virus (SARS-CoV-2, UniProt P0DTC2 14-1273); experiment: cell-based or functional assay
[27] = molecular target: Spike protein D614G (SARS-CoV-2/human/Germany/BavPat 1/2020) on pseudovirus or live virus (SARS-CoV-2, UniProt P0DTC2 14-1273); experiment: cell-based or functional assay

Row | Binder | fold over background [1] | fold over background [2] | fold over background [3] | fold over background [4] | fold over background [5] | fold over background [6] | fold over background [7] | EC50 [8] | EC50 [9] | EC50 [10] | EC50 [11] | EC50 [12] | EC50 [13] | EC50 [14] | EC50 [15] | EC50 [16] | EC50 [17] | EC50 [18] | EC50 [19] | EC50 [20] | also measured
1 | B1 | 4.92 fold over background | 3.64 fold over background | 4.62 fold over background | 4.43 fold over background | 4.42 fold over background | 4.74 fold over background | 6.58 fold over background | 0.0143 nM | 0.0397 nM | 0.0269 nM | 0.0267 nM | 0.0455 nM | 0.0316 nM | 0.0398 nM | 0.0216 nM | 0.0437 nM | 0.0263 nM | 0.0221 nM | 0.051 nM | 0.0279 nM | EC50 [21]: 0.0494 nM; EC50 [22]: 0.0261 nM; EC50 [23]: 0.0194 nM; EC50 [24]: 0.0436 nM; EC50 [25]: 0.0205 nM; IC50, neutralization of live virus in a virus internalization assay [26]: 43.3 nM; IC80, neutralization of live virus in a virus internalization assay [26]: > 394 nM; IC90, neutralization of live virus in a virus internalization assay [26]: > 394 nM; IC50, neutralization of live virus in a virus internalization assay [27]: 33.8 nM; IC80, neutralization of live virus in a virus internalization assay [27]: 126 nM; IC90, neutralization of live virus in a virus internalization assay [27]: 236 nM
2 | B2 | 4.3 fold over background | 2.25 fold over background | 6.75 fold over background | 5.95 fold over background | 7.47 fold over background | 5.94 fold over background | 8.81 fold over background | 0.396 nM | 0.0627 nM | 0.0491 nM | 0.23 nM | > 0.5 nM | 0.0472 nM | 0.279 nM | 0.0524 nM | > 0.5 nM | 0.0219 nM | 0.0334 nM | 0.0689 nM | 0.0724 nM | EC50 [21]: 0.0646 nM; EC50 [22]: 0.0677 nM; EC50 [23]: 0.0258 nM; EC50 [24]: 0.0318 nM; EC50 [25]: 0.0334 nM; IC50, neutralization of live virus in a virus internalization assay [26]: 2.66 nM; IC80, neutralization of live virus in a virus internalization assay [26]: 13.7 nM; IC90, neutralization of live virus in a virus internalization assay [26]: > 394 nM; IC50, neutralization of live virus in a virus internalization assay [27]: 0.35 nM; IC80, neutralization of live virus in a virus internalization assay [27]: 1.43 nM; IC90, neutralization of live virus in a virus internalization assay [27]: 3.06 nM
3 | B3 | 5.11 fold over background | 4.68 fold over background | 5.14 fold over background | 5.05 fold over background | 5.22 fold over background | 4.67 fold over background | 7.6 fold over background | 0.0216 nM | 0.0624 nM | 0.0449 nM | 0.0248 nM | 0.0624 nM | 0.0664 nM | 0.0585 nM | 0.0238 nM | 0.0674 nM | 0.0317 nM | 0.0259 nM | 0.0534 nM | 0.033 nM | EC50 [21]: 0.0626 nM; EC50 [22]: 0.0406 nM; EC50 [23]: 0.0261 nM; EC50 [24]: 0.034 nM; EC50 [25]: 0.0316 nM; IC50, neutralization of live virus in a virus internalization assay [26]: 1.38 nM; IC80, neutralization of live virus in a virus internalization assay [26]: 61.1 nM; IC90, neutralization of live virus in a virus internalization assay [26]: 219 nM; IC50, neutralization of live virus in a virus internalization assay [27]: 39.4 nM; IC80, neutralization of live virus in a virus internalization assay [27]: 151 nM; IC90, neutralization of live virus in a virus internalization assay [27]: 289 nM
